Legend:
[1] = target: rh-α5β1 protein bound to human FN protein (Homo sapiens, UniProt P05556+P08648); experiment: SPR dissociation of rh-α5β1 bound to FN; type: biochemical; conditions: 1 μM antibody injected for 250s after 400 nM rh-α5β1; 25° C.
Procedure: Surface Plasmon Resonance (SPR) and a cell-based assay were used to test the effect of the antibodies on the dissociation of rh-α5β1 protein bound to human FN protein. The antibodies tested are representatives of the two groups of antibodies identified in Example 6 that define two different epitope binding groups and have distinct ligand blocking properties. […] In addition, the small molecule antagonist cyclic RGD (cRGD; Creative-Peptides, Shirley, New York, 11967, cat. no. CP22175) was tested as a comparator that inhibits α5β1 integrin binding to FN by competing at the ligand binding pocket.
Description of the SPR method used: FN protein dissolved in water was manually printed onto the bare gold-coated (thickness 47 nm) PlexArray Nanocapture Sensor Chip (Plexera Bioscience, Seattle, WA) at 40% humidity. The chip was incubated in 80% humidity at 4° C. for overnight and rinsed with 10×PBST (0.1M phosphate buffer, 1.54M NaCl, pH7.4, 0.5% Tween20) for 10 minutes (min), 1×PBST (0.01M phosphate buffer pH7.4, 0.154M NaCl, 0.05% Tween20) for 10 min, and deionized water twice for 10 min. The chip was then blocked with 5% (w/v) non-fat milk in water overnight, and washed with 10×PBST for 10 min, 1×PBST for 10 min, and deionized water twice for 10 min before being dried under a stream of nitrogen prior to use. SPR measurements were performed using PlexArray HT (Plexera Bioscience, Seattle, WA), a high-throughput surface plasmon resonance imaging (SPRi) platform. Collimated light (660 nm) passes through the coupling prism, reflects off the SPR-active gold surface, and is received by the CCD camera. Buffers and samples were injected by a non-pulsatile piston pump into the 30 μL flow cell that was mounted on the coupling prim. […] SPR binding responses (a.u.) were recorded and plotted over time.

[2] = target: T1, binding of α5β1 integrin to fibronectin (FN) (Homo sapiens, UniProt P05556+P08648); experiment: Quantitative FN inhibition (FN-blocking) assay in ELISA format; type: biochemical; conditions: by ELISA
T1 construct: purchased Acro Biosystems IT1-H52W5
From the text: To determine whether the 9 unique hybridoma clones selected as described in Example 4 were able to inhibit the binding of α5β1 integrin to fibronectin (FN), the antibodies were first purified from hybridoma supernatants by Protein A chromatography, protein concentrations measured by BCA assay (Pierce™ BCA Protein Assay Kit; Thermo Fisher Scientific, Waltham, MA, cat. no. 23225) and then tested in a quantitative FN inhibition assay in an ELISA format.
Immulon4 HBX ELISA 96-well plates were coated with FN by incubation overnight at 4° C. with 2.5 μg/mL human FN (R&D Systems, Minneapolis, MN 55413, cat. no. 1918-FN) in 1×PBS (0.01M phosphate buffer and 0.154M NaCl, pH 7.4). Plates were then washed 3 times with Wash Buffer (1× Tris Buffered Saline containing 0.05% Tween20), blocked with 2% BSA in 1×TBS for 2 hours at room temperature (RT). Antibodies were diluted in Standard Diluent (2% BSA, 1×TBS, 0.05% Tween20) containing 0.1 μg/mL rh-α5β1-6×His tagged protein (Acro Biosystems, Newark, DE, cat. no. IT1-H52W5), to generate an 11 point 1:3 antibody dilution series ranging from 10,000 ng/mL to 0.17 ng/mL. Isotype control antibody (Control Ab; Ms IgG2a EMD Millipore Corp, Billerica, MA, cat. no. PP102) was used to normalize data across different assay runs. For the assays, 100 uL of the antibody dilution series/His-tagged-α5β1 mixture was added to the wells after the blocking solution was removed and wells were washed 3 times. Following 1 hour at RT, the wells were washed 3 times, incubated with biotinylated Anti-6×His-Tag Ab (Invitrogen, Carlsbad, CA, cat. no. MAI-21315-BTIN) at 1:1000 in Standard Diluent for 1 hour, washed 3 times, incubated for 30 minutes with poly-HRP Streptavidin (Thermo Fisher Scientific, Waltham, MA, cat. no. N200), washed 4 times, incubated with TMB substrate (Thermo Fisher Scientific, Waltham, MA, cat. no. N301) for 2-5 minutes, followed by addition of ELISA Stop Solution (Invitrogen, Carlsbad, CA, cat. no. SS04). Absorbance 450 nm was measured. Data points were normalized to the isotype Control Ab values at each concentration and reported as % Absorbance 450 nm normalized to Control Ab. Non-linear regression analysis was used to fit curves (4-parameter) to the data using GraphPad Prism version 9.0.2 (GraphPad Software, LLC, San Diego, CA).
Freeze-thaw stability was tested on a small aliquot of each chimera antibody by overnight storage at −80° C. followed by thaw on ice, repeated three times. […] IC50s were calculated by non-linear regression analysis curve-fitting (4-parameter) of the ELISA data (FIG. 5) using GraphPad Prism version 9.0.2 (GraphPad Software, LLC, San Diego, CA). […]

T1 sequence (P08648 42-894 limits assumed): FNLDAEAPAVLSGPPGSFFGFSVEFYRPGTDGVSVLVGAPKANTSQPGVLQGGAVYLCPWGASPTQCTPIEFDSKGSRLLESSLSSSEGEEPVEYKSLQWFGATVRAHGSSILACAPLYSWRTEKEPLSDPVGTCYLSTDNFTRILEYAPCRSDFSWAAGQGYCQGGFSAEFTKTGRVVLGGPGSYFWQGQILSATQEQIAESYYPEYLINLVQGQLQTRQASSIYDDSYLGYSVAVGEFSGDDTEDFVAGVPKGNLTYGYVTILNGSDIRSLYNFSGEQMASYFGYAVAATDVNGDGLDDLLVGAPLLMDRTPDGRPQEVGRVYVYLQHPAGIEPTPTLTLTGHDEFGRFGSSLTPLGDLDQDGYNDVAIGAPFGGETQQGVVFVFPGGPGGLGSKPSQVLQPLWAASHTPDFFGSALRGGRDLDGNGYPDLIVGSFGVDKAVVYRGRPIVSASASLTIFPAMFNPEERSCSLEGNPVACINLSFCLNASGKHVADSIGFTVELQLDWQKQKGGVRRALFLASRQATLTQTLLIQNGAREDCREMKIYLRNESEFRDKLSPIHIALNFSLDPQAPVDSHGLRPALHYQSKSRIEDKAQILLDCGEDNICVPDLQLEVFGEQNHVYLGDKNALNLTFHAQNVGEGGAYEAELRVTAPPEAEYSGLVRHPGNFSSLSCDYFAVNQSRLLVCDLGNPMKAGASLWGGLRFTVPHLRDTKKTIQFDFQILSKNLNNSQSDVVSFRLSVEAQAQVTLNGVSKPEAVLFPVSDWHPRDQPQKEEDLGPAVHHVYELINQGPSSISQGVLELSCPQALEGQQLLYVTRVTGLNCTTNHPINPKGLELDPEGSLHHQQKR
T1 sequence (P08648 895-995 limits assumed): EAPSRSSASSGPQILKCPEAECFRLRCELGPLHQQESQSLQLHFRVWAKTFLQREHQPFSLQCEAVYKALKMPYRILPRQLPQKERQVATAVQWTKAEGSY
T1 sequence (P05556 21-728 limits assumed): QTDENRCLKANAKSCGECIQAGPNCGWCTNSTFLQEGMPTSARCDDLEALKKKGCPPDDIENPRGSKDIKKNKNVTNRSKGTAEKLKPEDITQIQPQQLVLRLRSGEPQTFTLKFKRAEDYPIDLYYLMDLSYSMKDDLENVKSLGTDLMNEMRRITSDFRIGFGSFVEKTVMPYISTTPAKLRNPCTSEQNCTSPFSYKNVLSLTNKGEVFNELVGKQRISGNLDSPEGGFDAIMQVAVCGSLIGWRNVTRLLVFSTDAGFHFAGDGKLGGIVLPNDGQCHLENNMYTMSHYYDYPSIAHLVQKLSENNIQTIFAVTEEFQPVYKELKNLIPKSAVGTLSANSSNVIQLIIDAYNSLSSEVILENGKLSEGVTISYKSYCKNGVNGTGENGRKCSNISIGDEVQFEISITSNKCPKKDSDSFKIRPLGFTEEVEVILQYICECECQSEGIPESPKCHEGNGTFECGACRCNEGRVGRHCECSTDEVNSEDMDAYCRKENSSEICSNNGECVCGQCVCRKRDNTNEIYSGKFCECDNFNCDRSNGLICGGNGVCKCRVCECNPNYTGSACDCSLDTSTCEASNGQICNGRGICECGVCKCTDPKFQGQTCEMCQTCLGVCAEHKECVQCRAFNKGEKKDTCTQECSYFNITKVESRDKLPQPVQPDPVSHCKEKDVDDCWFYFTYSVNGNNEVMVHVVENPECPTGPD
rh-α5β1 protein bound to human FN protein, sequence (P08648 42-894 limits assumed): as the sequence (P08648 42-894 limits assumed) above
rh-α5β1 protein bound to human FN protein, sequence (P08648 895-995 limits assumed): as the sequence (P08648 895-995 limits assumed) above
rh-α5β1 protein bound to human FN protein, sequence (P05556 21-728 limits assumed): as the sequence (P05556 21-728 limits assumed) above

| class of FN binding blocker [2] | Molecule | effect on dissociation of rh-α5β1 protein bound to FN (SPR response) [1] |
| --- | --- | --- |
| partial blocker of FN binding | A2-7A05: anti-α5β1 antibody, VH SEQ ID NO:77, VL SEQ ID NO:78; tested as mouse hybridoma antibody and as human IgG4 chimera (antibody, V domains shown, A2-7A05 VH Sequence; A2-7A05 VL Sequence, tested as mouse hybridoma antibody and as human IgG4 chimera) VH: QVQLQQPGAELVKPGASVKLSCKASGYTFTIYWINWVKQRPGQGLEWIGKIYPGSISTDYNEKFKSKATLTVDTSSSTAYMQLSSLTSDDSAVYYCAITGTGGLAYWGQGTLVTVSA VL: ENVLTQSPAIMSASLGEKVTMTCRASSSVNYMYWYQQKSDASPKLWIYFTSSLAPGVPGRFSGSGSGNSYSLTISTMEGEDAATYYCQQFTTSPFTFGSGTKLEIK | partial dissociation at a slower rate |
| strong blockers of FN binding | A-15B08: anti-α5β1 antibody, VH SEQ ID NO:25, VL SEQ ID NO:26; tested as mouse hybridoma antibody and as human IgG4 chimera (antibody, V domains shown, A-15B08 VH Sequence; A-15B08 VL Sequence, tested as mouse hybridoma antibody and as human IgG4 chimera) VH: QVQLKESGPGLVAPSQSLSITCTISGFSLTSYGVHWVRQPPGKGLEWLVVIWSDGSTTYNSTLKSRLSISKDNSKSQVFFKMNSLQTDDTAMYYCARHYDYDGDWFAYWGQGTLVTVSA VL: QIVLTQSPAIMSASLGERVTMTCTASSRVSSNSLHWYQQKPGSSPKLWIYSTSNLASGVPARFSGSGSGTSYSLTISSMEAEDAATYYCHQYLRSPPTFGGGTKLEIK | rapid dissociation of the FN-α5β1 complex |
